Molecular target: low-density lipoprotein receptor-related protein 1 (LRP1), full-length, purified from human placenta (human) (UniProt Q07954)
Assay: SPR; LRP1 amine-coupled to CM5 chip; RBD or alkylated RBD flowed in HBS-P with 1 mM CaCl2, 25 C; equilibrium analysis (Req against concentration, single class of sites) and single injections of 1 uM

Chain of low-density lipoprotein receptor-related protein 1 (LRP1), full-length, purified from human placenta (human) (Q07954 20-4544): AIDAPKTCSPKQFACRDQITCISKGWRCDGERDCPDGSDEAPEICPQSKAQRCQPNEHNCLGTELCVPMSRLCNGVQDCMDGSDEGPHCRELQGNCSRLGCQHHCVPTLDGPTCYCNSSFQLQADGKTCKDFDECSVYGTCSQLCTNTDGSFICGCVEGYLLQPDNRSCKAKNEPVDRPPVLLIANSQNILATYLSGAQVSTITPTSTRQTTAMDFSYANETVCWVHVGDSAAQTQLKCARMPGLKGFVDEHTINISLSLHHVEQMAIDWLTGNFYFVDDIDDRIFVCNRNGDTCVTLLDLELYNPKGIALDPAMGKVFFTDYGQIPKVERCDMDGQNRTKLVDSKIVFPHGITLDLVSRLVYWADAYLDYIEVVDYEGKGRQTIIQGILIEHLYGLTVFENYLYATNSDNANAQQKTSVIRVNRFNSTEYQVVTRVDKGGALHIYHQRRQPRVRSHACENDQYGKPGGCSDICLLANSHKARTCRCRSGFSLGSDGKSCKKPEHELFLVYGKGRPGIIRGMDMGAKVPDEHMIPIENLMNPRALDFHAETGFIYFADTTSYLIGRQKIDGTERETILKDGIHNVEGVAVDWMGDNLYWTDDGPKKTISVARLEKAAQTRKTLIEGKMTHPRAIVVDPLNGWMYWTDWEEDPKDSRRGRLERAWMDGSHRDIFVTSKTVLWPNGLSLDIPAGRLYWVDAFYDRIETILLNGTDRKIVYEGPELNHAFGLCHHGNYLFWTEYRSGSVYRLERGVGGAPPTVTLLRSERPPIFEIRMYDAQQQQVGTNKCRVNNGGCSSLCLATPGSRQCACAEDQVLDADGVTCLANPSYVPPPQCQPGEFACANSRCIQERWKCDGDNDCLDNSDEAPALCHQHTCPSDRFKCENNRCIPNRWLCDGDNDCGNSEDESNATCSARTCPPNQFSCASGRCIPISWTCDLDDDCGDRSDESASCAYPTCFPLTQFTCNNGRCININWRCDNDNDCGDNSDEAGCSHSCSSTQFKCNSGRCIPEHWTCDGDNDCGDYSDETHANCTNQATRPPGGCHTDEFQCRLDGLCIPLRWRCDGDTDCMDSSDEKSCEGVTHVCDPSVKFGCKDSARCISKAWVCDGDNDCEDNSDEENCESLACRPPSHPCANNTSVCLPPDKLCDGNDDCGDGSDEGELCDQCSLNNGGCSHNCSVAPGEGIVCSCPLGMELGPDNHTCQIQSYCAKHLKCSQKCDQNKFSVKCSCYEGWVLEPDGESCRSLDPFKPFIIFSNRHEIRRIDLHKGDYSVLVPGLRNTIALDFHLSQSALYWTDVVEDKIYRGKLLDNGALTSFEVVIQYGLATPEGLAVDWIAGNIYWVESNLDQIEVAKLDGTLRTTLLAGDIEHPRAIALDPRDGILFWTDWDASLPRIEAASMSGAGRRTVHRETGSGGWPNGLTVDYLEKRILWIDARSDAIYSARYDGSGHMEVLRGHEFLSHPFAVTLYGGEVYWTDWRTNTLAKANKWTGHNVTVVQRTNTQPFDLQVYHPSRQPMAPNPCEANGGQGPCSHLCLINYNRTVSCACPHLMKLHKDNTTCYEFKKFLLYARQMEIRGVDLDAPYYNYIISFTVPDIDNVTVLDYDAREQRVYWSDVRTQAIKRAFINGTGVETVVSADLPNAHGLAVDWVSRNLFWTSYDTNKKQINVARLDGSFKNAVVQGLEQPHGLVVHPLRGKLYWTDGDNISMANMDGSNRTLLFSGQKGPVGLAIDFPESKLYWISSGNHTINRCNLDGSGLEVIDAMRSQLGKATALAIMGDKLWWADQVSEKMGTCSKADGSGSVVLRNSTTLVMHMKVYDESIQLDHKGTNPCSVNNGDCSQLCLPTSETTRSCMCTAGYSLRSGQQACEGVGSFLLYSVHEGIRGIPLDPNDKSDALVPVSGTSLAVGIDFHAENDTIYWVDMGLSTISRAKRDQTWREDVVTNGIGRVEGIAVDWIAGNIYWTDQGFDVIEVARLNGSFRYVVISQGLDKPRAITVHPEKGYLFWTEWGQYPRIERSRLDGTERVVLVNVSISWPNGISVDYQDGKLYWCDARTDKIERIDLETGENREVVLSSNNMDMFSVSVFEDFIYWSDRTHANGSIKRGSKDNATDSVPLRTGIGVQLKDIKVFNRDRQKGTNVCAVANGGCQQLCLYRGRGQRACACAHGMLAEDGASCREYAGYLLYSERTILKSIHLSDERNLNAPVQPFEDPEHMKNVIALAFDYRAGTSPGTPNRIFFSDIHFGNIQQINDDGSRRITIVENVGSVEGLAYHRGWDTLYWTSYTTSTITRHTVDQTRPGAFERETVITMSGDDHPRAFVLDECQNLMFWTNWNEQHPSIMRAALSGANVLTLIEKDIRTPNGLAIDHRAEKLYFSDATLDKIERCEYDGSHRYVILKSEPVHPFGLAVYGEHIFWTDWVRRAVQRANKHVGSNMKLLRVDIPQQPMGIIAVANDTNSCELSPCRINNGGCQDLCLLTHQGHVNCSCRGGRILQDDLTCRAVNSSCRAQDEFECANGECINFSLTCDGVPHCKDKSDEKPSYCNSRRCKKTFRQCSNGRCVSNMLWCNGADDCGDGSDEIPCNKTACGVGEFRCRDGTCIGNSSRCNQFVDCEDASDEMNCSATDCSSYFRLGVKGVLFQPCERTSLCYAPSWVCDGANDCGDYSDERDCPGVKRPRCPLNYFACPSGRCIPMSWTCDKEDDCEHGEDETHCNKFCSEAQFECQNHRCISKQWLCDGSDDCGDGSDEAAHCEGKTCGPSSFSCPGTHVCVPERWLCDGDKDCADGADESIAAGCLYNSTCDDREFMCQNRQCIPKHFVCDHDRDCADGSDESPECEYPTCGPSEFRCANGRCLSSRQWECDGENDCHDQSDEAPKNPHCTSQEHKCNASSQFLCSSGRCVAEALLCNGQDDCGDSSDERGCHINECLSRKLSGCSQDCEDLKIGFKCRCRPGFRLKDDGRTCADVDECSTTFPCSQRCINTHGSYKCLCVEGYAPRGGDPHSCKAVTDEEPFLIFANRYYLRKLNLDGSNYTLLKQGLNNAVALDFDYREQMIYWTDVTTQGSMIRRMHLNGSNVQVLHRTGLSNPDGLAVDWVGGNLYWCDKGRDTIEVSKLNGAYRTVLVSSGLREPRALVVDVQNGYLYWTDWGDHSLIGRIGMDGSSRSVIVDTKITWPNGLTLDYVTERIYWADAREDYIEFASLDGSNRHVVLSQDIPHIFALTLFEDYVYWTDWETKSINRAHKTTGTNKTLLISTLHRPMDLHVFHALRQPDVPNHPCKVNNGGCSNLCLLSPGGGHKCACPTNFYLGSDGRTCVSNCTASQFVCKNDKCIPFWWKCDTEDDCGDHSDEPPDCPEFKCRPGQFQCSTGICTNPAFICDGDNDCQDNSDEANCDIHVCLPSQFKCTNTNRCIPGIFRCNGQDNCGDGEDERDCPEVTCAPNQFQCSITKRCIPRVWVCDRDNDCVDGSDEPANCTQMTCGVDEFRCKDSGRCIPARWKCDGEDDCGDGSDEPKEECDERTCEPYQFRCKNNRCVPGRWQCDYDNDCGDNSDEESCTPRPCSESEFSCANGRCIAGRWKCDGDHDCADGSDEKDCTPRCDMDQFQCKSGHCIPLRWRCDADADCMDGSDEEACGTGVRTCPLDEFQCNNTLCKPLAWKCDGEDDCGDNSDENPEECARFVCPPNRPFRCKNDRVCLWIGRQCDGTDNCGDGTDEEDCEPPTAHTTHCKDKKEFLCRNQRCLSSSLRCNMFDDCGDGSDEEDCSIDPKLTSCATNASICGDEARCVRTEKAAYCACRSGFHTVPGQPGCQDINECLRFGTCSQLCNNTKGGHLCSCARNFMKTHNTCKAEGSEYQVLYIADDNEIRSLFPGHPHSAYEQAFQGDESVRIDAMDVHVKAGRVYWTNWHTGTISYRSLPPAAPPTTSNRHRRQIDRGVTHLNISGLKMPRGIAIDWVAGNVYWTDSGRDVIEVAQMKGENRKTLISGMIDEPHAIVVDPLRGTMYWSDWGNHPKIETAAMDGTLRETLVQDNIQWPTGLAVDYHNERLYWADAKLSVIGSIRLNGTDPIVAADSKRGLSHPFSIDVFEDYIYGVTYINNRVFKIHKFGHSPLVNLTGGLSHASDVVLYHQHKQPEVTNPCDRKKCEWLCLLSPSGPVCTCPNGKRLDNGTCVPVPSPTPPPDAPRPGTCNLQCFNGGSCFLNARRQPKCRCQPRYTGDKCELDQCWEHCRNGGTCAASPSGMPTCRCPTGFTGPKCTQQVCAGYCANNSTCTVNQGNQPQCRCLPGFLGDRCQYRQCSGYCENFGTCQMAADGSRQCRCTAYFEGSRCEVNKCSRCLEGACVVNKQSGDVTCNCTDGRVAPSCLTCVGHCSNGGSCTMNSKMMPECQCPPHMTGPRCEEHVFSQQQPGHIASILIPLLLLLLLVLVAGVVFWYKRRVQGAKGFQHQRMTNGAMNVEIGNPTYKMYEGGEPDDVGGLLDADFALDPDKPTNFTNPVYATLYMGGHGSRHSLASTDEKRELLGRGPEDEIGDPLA

SARS-CoV-2 spike protein receptor binding domain (Arg319-Phe541), his tagged (from UniProt P0DTC2 319-541) (domain or fragment)
Kd: 192 nM
